Laboratory results as given in paper PMC5193468.

Columns and labels:
His-MBP-Lin28TT [1] = molecular target: T1, His-MBP-Lin28TT (Homo sapiens, UniProt Q9H9Z2 32-187); experiment: fluorescence anisotropy; 50 uM ZnCl2; FA: 20 nM 5'-fluorescein RNA, 20 mM Tris-HCl pH 7.5, 50-750 mM NaCl (100 mM for the main miR-363 Kd), 10 mM beta-mercaptoethanol, 50 uM ZnCl2, 0.01% Tween 20, 2
T1 sequence: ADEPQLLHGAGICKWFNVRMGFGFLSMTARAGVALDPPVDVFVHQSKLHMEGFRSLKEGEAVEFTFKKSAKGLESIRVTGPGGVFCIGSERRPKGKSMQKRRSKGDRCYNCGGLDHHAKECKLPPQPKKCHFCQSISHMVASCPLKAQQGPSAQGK

His-MBP-Lin28TT [2] = molecular target: T1, His-MBP-Lin28TT; experiment: fluorescence anisotropy; 500 mM NaCl; 50 uM ZnCl2; FA: 20 nM 5'-fluorescein RNA, 20 mM Tris-HCl pH 7.5, 50-750 mM NaCl (100 mM for the main miR-363 Kd), 10 mM beta-mercaptoethanol, 50 uM ZnCl2, 0.01% Tween 20, 2
His-MBP-Lin28TT [3] = molecular target: T1, His-MBP-Lin28TT; experiment: fluorescence anisotropy; 100 mM NaCl; 50 uM ZnCl2; FA: 20 nM 5'-fluorescein RNA, 20 mM Tris-HCl pH 7.5, 50-750 mM NaCl (100 mM for the main miR-363 Kd), 10 mM beta-mercaptoethanol, 50 uM ZnCl2, 0.01% Tween 20, 2
His-MBP-Lin28TT [4] = molecular target: T1, His-MBP-Lin28TT; experiment: fluorescence anisotropy; 250 mM NaCl; 50 uM ZnCl2; FA: 20 nM 5'-fluorescein RNA, 20 mM Tris-HCl pH 7.5, 50-750 mM NaCl (100 mM for the main miR-363 Kd), 10 mM beta-mercaptoethanol, 50 uM ZnCl2, 0.01% Tween 20, 2
His-MBP-Lin28TT [5] = molecular target: T1, His-MBP-Lin28TT; experiment: fluorescence anisotropy; 750 mM NaCl; 50 uM ZnCl2; FA: 20 nM 5'-fluorescein RNA, 20 mM Tris-HCl pH 7.5, 50-750 mM NaCl (100 mM for the main miR-363 Kd), 10 mM beta-mercaptoethanol, 50 uM ZnCl2, 0.01% Tween 20, 2

Binder CGGGUCUAUGAUACCACCCGGUACAGGAG (structured_RNA) [let-7g 29-57] has a Kd (His-MBP-Lin28TT [1]) of 54.1 ± 4.2 nM.

With GAUGCAAUUUUGAUGAGUAUCAUAGGAG (structured_RNA) [miR-363 19-46] the Kd (His-MBP-Lin28TT [2]) was 8 ± 0.8 nM, the Kd (His-MBP-Lin28TT [3]) was 16.6 ± 1.9 nM and the Kd (His-MBP-Lin28TT [4]) was 6.6 ± 0.9 nM. For the same binder, the Kd (His-MBP-Lin28TT [5]) was 12.4 ± 1.1 nM.
